Assay results: patent US20210122826A1 (MIT, published 2021)

Experiments:
[1] = target: T1, cynomolgus CD161 (cynomolgus); assay: flow, Jurkat
T1 construct: UniProt A0A2K5WYI1; also called cynoCD161
T1 chain: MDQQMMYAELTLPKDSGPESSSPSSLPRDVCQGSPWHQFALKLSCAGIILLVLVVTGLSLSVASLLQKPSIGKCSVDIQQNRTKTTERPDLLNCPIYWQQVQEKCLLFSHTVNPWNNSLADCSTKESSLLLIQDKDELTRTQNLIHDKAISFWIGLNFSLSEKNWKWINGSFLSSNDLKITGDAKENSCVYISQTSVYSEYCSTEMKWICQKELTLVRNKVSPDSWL

[2] = target: T2, Human KLRF1 (human, UniProt Q9NZS2 1-231); assay: flow, Jurkat
T2 construct: also called hKLRF1
T2 sequence: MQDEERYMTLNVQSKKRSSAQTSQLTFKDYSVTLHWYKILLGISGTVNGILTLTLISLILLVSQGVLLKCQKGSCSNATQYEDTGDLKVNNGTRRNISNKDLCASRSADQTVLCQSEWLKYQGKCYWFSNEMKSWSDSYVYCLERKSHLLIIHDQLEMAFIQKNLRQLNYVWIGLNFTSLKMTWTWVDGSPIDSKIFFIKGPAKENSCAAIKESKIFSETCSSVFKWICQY

[3] = target: T3, Human KLRF2 (human, UniProt D3W0D1 1-207); assay: flow, Jurkat
T3 construct: also called hKLRF2
T3 sequence: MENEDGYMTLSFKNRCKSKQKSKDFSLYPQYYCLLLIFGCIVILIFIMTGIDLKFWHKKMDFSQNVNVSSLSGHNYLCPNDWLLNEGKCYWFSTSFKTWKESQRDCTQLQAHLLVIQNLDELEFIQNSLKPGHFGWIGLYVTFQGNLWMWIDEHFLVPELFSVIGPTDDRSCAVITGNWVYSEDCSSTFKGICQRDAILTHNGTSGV

[4] = target: T4, human CD161 (human, UniProt Q12918 1-225); assay: flow, Jurkat, 100 nM Ab
T4 construct: UniProt Q12918; also called hCD161; KLRB1

[5] = target: T2, Human KLRF1; assay: flow, Jurkat, 100 nM Ab
[6] = target: T5, Human CD94 (human, UniProt Q13241 1-179); assay: flow, Jurkat, 100 nM Ab
T5 construct: also called hCD94
T5 sequence: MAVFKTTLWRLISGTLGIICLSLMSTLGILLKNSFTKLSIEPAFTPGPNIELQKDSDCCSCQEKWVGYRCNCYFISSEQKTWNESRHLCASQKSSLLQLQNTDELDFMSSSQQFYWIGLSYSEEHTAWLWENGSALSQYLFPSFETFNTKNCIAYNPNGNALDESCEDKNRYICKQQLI

[7] = target: T6, Human Clec7A (human, UniProt Q9BXN2 1-247); assay: flow, Jurkat, 100 nM Ab
T6 construct: also called hClec7A
T6 sequence: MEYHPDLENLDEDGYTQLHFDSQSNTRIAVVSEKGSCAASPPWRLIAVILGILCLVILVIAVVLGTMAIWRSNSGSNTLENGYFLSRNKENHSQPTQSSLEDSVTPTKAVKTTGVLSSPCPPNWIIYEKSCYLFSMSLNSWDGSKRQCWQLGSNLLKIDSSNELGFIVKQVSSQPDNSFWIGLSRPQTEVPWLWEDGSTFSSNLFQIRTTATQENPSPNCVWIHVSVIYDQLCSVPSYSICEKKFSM

[8] = target: T7, Human OLR1 (human, UniProt P78380 1-273); assay: flow, Jurkat, 100 nM Ab
T7 construct: also called hOLR1

[9] = target: T8, Human Clec5A (human, UniProt Q9NY25 1-188); assay: flow, Jurkat, 100 nM Ab
T8 construct: also called hClec5A
T8 sequence: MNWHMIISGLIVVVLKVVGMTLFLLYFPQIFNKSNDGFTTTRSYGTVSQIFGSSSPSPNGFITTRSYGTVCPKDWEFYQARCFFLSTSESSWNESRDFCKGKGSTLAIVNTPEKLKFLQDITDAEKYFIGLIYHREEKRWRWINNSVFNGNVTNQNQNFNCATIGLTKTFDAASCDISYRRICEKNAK

[10] = target: T9, Human Clec10A (human, UniProt Q8IUN9 1-316); assay: flow, Jurkat, 100 nM Ab
T9 construct: also called hClec10A
T9 sequence: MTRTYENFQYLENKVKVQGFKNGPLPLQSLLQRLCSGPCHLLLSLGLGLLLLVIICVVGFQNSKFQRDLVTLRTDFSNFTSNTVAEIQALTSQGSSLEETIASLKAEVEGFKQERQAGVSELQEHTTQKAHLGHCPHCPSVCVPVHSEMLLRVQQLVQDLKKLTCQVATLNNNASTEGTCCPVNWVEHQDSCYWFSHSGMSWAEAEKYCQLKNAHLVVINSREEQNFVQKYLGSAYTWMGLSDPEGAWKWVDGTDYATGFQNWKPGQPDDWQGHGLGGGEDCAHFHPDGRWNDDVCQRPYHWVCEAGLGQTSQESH

B1: anti-CD161 KW17 (antibody, V domains shown)
VH: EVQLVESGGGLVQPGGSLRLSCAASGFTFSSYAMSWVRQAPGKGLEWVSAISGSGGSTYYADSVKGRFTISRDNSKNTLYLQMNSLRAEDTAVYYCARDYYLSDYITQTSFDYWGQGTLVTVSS
VL: QSVLTQPPSVSGAPGQRVTISCTGSSSNIGAGYDVHWYQQLPGTAPKLLIYGNSNRPSGVPDRFSGSKSGTSASLAITGLQAEDEADYYCQSYDSSHTVFGGGTQLTVL
notes: Human, lambda light chain; scFv-Fc or full IgG not clear; also called KW17-Fc
[1]
  binding result: no binding (tested: 100 nM)
[2]
  binding result: no binding (tested: 100 nM)
[3]
  binding result: no binding (tested: 100 nM)
[4]
  MFI normalized to WT: 53.9
[5]
  MFI normalized to WT: 0.89
[6]
  MFI normalized to WT: 0.95
[7]
  MFI normalized to WT: 1.13
[8]
  MFI normalized to WT: 0.98
[9]
  MFI normalized to WT: 1.04
[10]
  MFI normalized to WT: 0.96
